Reference: US20010055591A1

Assays:
[1] = target: trypsin; experiment: discontinuous trypsin inhibition assay, chromogenic substrate SpTH
[2] = target: thrombin (free thrombin) (human) (UniProt P00734); experiment: discontinuous thrombin inhibition assay, chromogenic substrate; with 5 µg/ml heparin
[3] = target: thrombin (free thrombin) (human) (UniProt P00734); experiment: discontinuous thrombin inhibition assay, chromogenic substrate; no TM
[4] = target: Factor Xa (human) (UniProt P00742); experiment: discontinuous Factor Xa inhibition assay, chromogenic substrate SpFXa
Chain of Factor Xa (human) (P00742 41-179 limits assumed, form in doubt, chain 1 of 2): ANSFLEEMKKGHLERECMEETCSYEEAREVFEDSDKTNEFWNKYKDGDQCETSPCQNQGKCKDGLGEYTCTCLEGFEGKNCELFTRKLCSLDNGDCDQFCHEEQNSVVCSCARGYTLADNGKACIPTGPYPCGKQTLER
Chain of Factor Xa (human) (P00742 235-488 limits assumed, form in doubt, chain 2 of 2): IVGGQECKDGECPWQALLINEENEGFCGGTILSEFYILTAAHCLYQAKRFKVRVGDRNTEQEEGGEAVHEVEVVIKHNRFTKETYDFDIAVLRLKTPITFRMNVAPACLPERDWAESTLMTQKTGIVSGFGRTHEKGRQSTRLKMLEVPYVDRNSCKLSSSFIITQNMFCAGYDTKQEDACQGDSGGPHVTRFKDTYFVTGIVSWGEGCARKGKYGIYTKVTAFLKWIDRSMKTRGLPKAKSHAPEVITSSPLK

second-order rate constant (κ2) of inhibition [1]: 17000 M⁻¹ s⁻¹ | second-order rate constant (κ2) of inhibition [2]: 1.4e+06 M⁻¹ s⁻¹ | second-order rate constant (κ2) of inhibition [3]: 4100 M⁻¹ s⁻¹ | second-order rate constant (κ2) of inhibition [4]: 990 M⁻¹ s⁻¹
Substance: AT-neut (antithrombin H-helix mutant Asp309 to Asn, Glu310, 312, 313 to Gln) (from UniProt P01008 33-464)
